Experiments:
[1] = biological target: T1, human LAG-3 expressed on cells (human, UniProt P18627 23-525); assay: FACS, human LAG-3 transfected CHO cells; human LAG-3 transfected CHO cells
T1 construct: whole, on cells; Treated as one protein; the host cell is named under assay; also called LAG-3-expressing CHO cells; LAG-3-transfected CHO cells
T1 sequence (looked up): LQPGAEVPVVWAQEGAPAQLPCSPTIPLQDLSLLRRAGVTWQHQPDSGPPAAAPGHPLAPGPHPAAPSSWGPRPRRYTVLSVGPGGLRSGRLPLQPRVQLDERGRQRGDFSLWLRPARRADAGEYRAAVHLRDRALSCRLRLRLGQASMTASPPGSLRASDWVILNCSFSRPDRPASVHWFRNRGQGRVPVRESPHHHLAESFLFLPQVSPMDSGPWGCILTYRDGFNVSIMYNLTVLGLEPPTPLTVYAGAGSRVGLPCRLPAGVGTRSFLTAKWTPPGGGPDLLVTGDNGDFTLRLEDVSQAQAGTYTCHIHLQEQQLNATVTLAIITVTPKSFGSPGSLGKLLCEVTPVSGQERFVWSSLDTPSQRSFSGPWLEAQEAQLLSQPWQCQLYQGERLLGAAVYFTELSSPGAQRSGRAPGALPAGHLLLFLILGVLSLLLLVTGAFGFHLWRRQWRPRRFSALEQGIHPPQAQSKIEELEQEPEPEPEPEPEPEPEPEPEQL

[2] = biological target: T2, LAG-3-huIgG1 Fc fusion protein (human, UniProt P18627 23-434, limits assumed); assay: competition binding assay, LAG-3-Ig binding to MHC class II on Raji cells
T2 construct: also called LAG-3-Ig; soluble LAG-3-Ig; not shown: human IgG1 Fc
T2 sequence (looked up): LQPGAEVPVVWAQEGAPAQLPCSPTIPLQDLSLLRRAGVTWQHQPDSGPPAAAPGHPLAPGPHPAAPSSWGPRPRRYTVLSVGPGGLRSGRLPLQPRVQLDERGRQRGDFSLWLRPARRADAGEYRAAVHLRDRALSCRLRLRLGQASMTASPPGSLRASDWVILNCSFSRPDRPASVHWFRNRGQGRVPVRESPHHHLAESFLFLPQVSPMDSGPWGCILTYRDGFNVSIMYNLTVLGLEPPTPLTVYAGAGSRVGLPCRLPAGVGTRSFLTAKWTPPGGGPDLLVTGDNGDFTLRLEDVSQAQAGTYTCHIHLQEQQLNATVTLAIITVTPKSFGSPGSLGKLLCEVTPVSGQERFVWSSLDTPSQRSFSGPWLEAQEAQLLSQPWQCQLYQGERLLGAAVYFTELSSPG

[3] = biological target: T1, human LAG-3 expressed on cells; assay: FACS, human T cells; human T cells
[4] = biological target: T1, human LAG-3 expressed on cells; assay: FACS, human LAG-3 transfected 300.19 cells; human LAG-3 transfected 300.19 cells

Kd [1]: 0.2 nM
IC50 [2]: 2.3 nM
Kd [3]: 0.26 nM
Kd [4]: 13.6 nM
B1: murine anti-LAG-3 monoclonal antibody BAP050 (antibody, V domains shown)
VH: QIQLVQSGPELKKPGETVKISCKASGFTLTNYGMNWVRQTPGKGLKWMGWINTDTGEPTYADDFKGRFAFSLETSASTASLQINNLKNADTATYFCARNPPYYYGTNNAEAMDYWGQGTAVTVSS
VL: DIQMTQTTSSLSASLGDRVTISCSSSQDISNYLNWYQQKPDGTVKVLIYYTSTLHLGVPSRFSGSGSGTDYSLTISNLELEDIATYYCQQYYNLPWTFGGGTKLEIK
notes: also called murine mAb; parent murine mAb

— patent US20180340025A1 (Novartis, published 2018)
